Non-standard residues stand in square brackets, D forms with d.
Columns and labels:
IL-1β pro = target: T1, IL-1β pro (Homo sapiens, UniProt P29466); assay: Inhibition of IL-1β pro catalyzed degradation of preIL-1β, in vitro assay with Western blot; assay type: biochemical
T1 construct: beginning with amino acid 120; Based upon a molecular weight analysis, the approximate C-terminus of mature IL-1β pro is about amino acid 297
T1 sequence (P29466 120-297): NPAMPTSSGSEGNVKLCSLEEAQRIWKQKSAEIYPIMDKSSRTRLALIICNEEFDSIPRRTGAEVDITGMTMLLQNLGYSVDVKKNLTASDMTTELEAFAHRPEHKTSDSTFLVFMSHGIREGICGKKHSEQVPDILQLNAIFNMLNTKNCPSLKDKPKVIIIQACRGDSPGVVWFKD
T1 sequence (P29466 317-404): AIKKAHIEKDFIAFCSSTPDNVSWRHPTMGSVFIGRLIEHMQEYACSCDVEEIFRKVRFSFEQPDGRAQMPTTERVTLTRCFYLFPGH
Method: Products were subjected to SDS-PAGE, transferred to nitrocellulose, and probed with an antibody raised against the COOH terminus of mature IL-1β. Lane 3, preIL-1β incubated with 25 μM of inhibitor; lane 4, preIL-1β incubated with 10 μM of inhibitor; lane 5, preIL-1β incubated with 5 μM inhibitor, lane 6, preIL-1β incubated with 1 μM inhibitor.
Boc-Asp-CH2F was tested for its ability to inhibit IL-1β pro catalyzed degradation of preIL-1β using an in vitro assay method. Black, et al., J. Biol. Chem., 263(19): 9437 (1988). Boc-Asp-CH2F was prepared in accordance with the method of example of 1A.
5 μl of preIL-1β (about 50 μg/ml in PBS) was mixed with 10 μl of purified IL-1β pro (15–75 μg/ml in PBS) and incubated at 37° C. for 30 minutes. The incubation was terminated by placing the samples on Dry Ice or by the addition of SDS sample buffer. PMSF was then added to a concentration of 1 mM, and the samples were dialyzed against water. After dialysis, the samples were concentrated to dryness in a Speed-Vac concentrator and dissolved in SDS sample buffer.
SDS-PAGE was carried out with 12% polyacrylamide gels. The gels were placed in transfer buffer (0.192 M glycine. 0.025 M Tris-HCl (pH 8.3), 20% v/v methanol), and protein was then electrophoresed onto nitrocellulos (Sartorius) in a Hoeffer transfer apparatus (1 h at maximum voltage). […]

[1] = target: T2, protease that generates mature IL-1β from the precursor polypeptide (Homo sapiens, UniProt P29466); conditions: Black et al., FEBS Lett., 247:386–90 (1989); cited from earlier work
T2 construct: host or cells: partially purified (about 500-fold) from THP-1 cell lysates, per Black et al., FEBS Lett. 247:386-90 (1989)
T2 sequence (P29466 120-297 limits assumed): T1 sequence (P29466 120-297)
T2 sequence (P29466 317-404 limits assumed): T1 sequence (P29466 317-404)

[2] = target: T3, purified human IL-1β pro enzyme (Homo sapiens, UniProt P29466); assay: Cleavage of synthetic peptide substrates by purified human IL-1β pro enzyme (RP-HPLC); assay type: biochemical; set-up: key to Reactivity Relative To Peptide 1: reactivity relative to peptide Ala112–Ser121 of precursor IL-1β; conditions: for ability of IL-1β pro to cleave the substrate peptide (in words): Tables 1 and 2
T3 construct: beginning with amino acid 120; Based upon a molecular weight analysis, the approximate C-terminus of mature IL-1β pro is about amino acid 297; endogenous in cells; host or cells: THP-1 cells (ATCC), stimulated, lysed, six-step chromatography
T3 sequence (P29466 120-297): T1 sequence (P29466 120-297)
T3 sequence (P29466 317-404): T1 sequence (P29466 317-404)
Method: This example illustrates the range of substrate specificity of purified human IL-1β pro enzyme to cleave a group of amino acid sequences. A variety of peptide substrates were prepared featuring changes in individual amino acids in the region corresponding to the cleavage site in human precursor IL-1β (His 115 to Pro 118). The reactivity of the peptide substrates was expressed relative to the peptide corresponding to Ala 112 to Ser 121 of the precursor IL-1β sequence.
Peptide solutions of standard concentration were prepared by dissolving about 2–3 mg of peptide substrate in water, loading the solution onto a Waters Sep-Pak C18 cartridge and washing three times with 5 ml of water. The peptide substrates were eluted with acetonitrile and then evaporated to dryness. Each substrate was standardized to 1 mM by amino acid analysis prior to use.
Purified human IL-1β pro enzyme (10 μl), peptide substrate in water (10 μl), and 10 mM Tris buffer, pH 8.0 containing 25% v/v glycerol (10 μl) were mixed and the mixtures were incubated at 37° C. for four hours. The reaction was quenched with by adding 1 M glycine/HCl buffer pH 2.0 (10 μl). The samples were then analyzed using RP-HPLC with a Vydac C18 column (0.46 cm×25 cm) and eluting with a linear gradient from 100% solvent A to 70% solvent A/30% solvent B over 30 minutes at a flow rate of 1 ml/min. The effluent was monitored at 280 nm absorbing product.
This example illustrates the effect of substrate peptide length on the ability of human IL-1β pro enzyme to cleave peptide substrates. […] Five substrate peptides were made that correspond to the amino acid sequence of the IL-1β pro cleavage site of human precursor IL-1.

[3] = target: Peptide 1, Ala-Tyr-Val-His-Asp-Ala-Pro-Val-Arg-Ser (human)
[4] = target: Peptide 2, Ala-Tyr-Val-His-Asn-Ala-Pro-Val-Arg-Ser
[5] = target: Peptide 3, Ala-Tyr-Val-His-Glu-Ala-Pro-Val-Arg-Ser
[6] = target: Peptide 4, Ala-Tyr-Val-His-(D-Asp)-Ala-Pro-Val-Arg-Ser
[7] = target: Peptide 5, Ala-Tyr-Val-His-Asp-Gly-Pro-Val-Arg-Ser
[8] = target: Peptide 6, Ala-Tyr-Val-His-Asp-Val-Pro-Val-Arg-Ser
[9] = target: Peptide 7, Ala-Tyr-Val-Phe-Asp-Ala-Pro-Val-Arg-Ser
[10] = target: Peptide 8, Ala-Tyr-Val-His-Asp-Ala-Ala-Val-Arg-Ser
[11] = target: T4, Peptide 10, Ac-Tyr-Val-His-Asp-Ala-Pro-Val-Arg-NH2 (human)
T4 sequence (peptide, N-terminal acetyl (Ac-); C-terminal amide (-NH2)): YVHDAPVR

[12] = target: Peptide 9, Glu-Ala-Tyr-Val-His-Asp-Ala-Pro (human)
[13] = Table 1, changes at cleavage site, 37° C., four hours, extent of peptide cleavage by RP-HPLC peak area at 280 nm
[14] = Table 2, effect of substrate peptide length, conducted as in Example 1

Molecule: CC(C)(C)OC(=O)N[C@@H](CC(=O)O)C(=O)CF [Boc-Asp-CH2F]
- inhibition of generation of mature IL-1β from preIL-1β (IL-1β pro; inhibitor concentration 1 μM): partially inhibits
- inhibition of generation of mature IL-1β from preIL-1β (IL-1β pro; inhibitor concentration 5 μM): completely inhibits

Molecule: CCN1C(=O)C=CC1=O [N-ethylmaleimide]
- inhibition of the protease (in words) [1]: inhibited

Molecule: O=C(O)CI [iodoacetate]
- inhibition of the protease (in words) [1]: inhibited

Molecule: Ala-Tyr-Val-His-(D-Asp)-Ala-Pro-Val-Arg-Ser (Seq. I.D. No. 16) (Ac-AYVH[dD]APVRS-NH2) [Peptide 4, substrate peptide, Asp changed to D-aspartate]
- Reactivity Relative To Peptide 1 [2, 13]: <0.01
- ability of IL-1β pro to cleave the substrate peptide (in words) [2]: profound effect on the ability of IL-1β pro to cleave the substrate

Molecule: Ala-Tyr-Val-His-Asn-Ala-Pro-Val-Arg-Ser (Seq. I.D. No. 14) (AYVHNAPVRS) [Peptide 2, substrate peptide, Asp changed to asparagine]
- Reactivity Relative To Peptide 1 [2, 13]: <0.01
- ability of IL-1β pro to cleave the substrate peptide (in words) [2]: profound effect on the ability of IL-1β pro to cleave the substrate

Molecule: Ala-Tyr-Val-His-Asp-Ala-Ala-Val-Arg-Ser (Seq. I.D. No. 20) (AYVHDAAVRS) [Peptide 8, substrate peptide, P2′ proline changed to alanine]
- Reactivity Relative To Peptide 1 [2, 13]: 0.47
- ability of IL-1β pro to cleave the substrate peptide (in words) [2]: still cleaved by human IL-1β pro but only half as efficiently

Molecule: Ala-Tyr-Val-His-Asp-Gly-Pro-Val-Arg-Ser (Seq. I.D. No. 17) (AYVHDGPVRS) [Peptide 5, substrate peptide, P1′ alanine replaced with glycine]
- times more reactive than peptide 1 [2]: 3.4 times
- Reactivity Relative To Peptide 1 [2, 13]: 3.40

Molecule: Ala-Tyr-Val-His-Asp-Val-Pro-Val-Arg-Ser (Seq. I.D. No. 18) (AYVHDVPVRS) [Peptide 6, substrate peptide, P1′ alanine changed to valine]
- Reactivity Relative To Peptide 1 [2, 13]: <0.05
- ability of IL-1β pro to cleave the substrate peptide (in words) [2]: effectively prevents proteolytic cleavage

Molecule: Ala-Tyr-Val-His-Glu-Ala-Pro-Val-Arg-Ser (Seq. I.D. No. 15) (AYVHEAPVRS) [Peptide 3, substrate peptide, Asp changed to glutamic acid]
- Reactivity Relative To Peptide 1 [2, 13]: <0.05
- ability of IL-1β pro to cleave the substrate peptide (in words) [2]: profound effect on the ability of IL-1β pro to cleave the substrate

Molecule: Ala-Tyr-Val-Phe-Asp-Ala-Pro-Val-Arg-Ser (Seq. I.D. No. 19) (AYVFDAPVRS) [Peptide 7]
- Reactivity Relative To Peptide 1 [2, 13]: 0.50
- ability of IL-1β pro to cleave the substrate peptide (in words) [2]: A similar result was obtained

Molecule: Glu-Ala-Tyr-Val-His-Asp-Ala-Pro- (Seq. I.D. No. 21) (EAYVHDAPVRSL) [Peptide 9, substrate peptide of the precursor IL-1β cleavage site]
- Reactivity Relative To Peptide 1 [2, 14]: 0.74

Molecule: His-Asp-Ala-Pro- (Seq. I.D. No. 24) (HDAP) [Peptide 12, four amino acid substrate peptide]
- Reactivity Relative To Peptide 1 [2, 14]: Not cleaved

Molecule: Tyr-Val-His-Asp-Ala-Pro-Val-Arg- (Seq. I.D. No. 22) (Ac-YVHDAPVR-NH2) [Peptide 10, eight amino acid substrate peptide]
- Reactivity Relative To Peptide 1 [2, 14]: 2.40
- ability of IL-1β pro to cleave the substrate peptide (in words) [2]: cleaved most efficiently

Molecule: Val-His-Asp-Ala-Pro-Val- (Seq. I.D. No. 23) (VHDAPV) [Peptide 11, six amino acid substrate peptide]
- Reactivity Relative To Peptide 1 [2, 14]: Not cleaved

B1: purified human IL-1β pro enzyme (interleukin 1β protease), purified from THP-1 cells (enzyme)
chain: T1 sequence (P29466 120-297)
- Reactivity Relative To Peptide 1 (peptide cleavage, RP-HPLC) (relative to Peptide 1) [3]: 1
- Reactivity Relative To Peptide 1 (peptide cleavage, RP-HPLC) (relative to Peptide 1) [4]: < 0.01
- Reactivity Relative To Peptide 1 (peptide cleavage, RP-HPLC) (relative to Peptide 1) [5]: < 0.05
- Reactivity Relative To Peptide 1 (peptide cleavage, RP-HPLC) (relative to Peptide 1) [6]: < 0.01
- Reactivity Relative To Peptide 1 (peptide cleavage, RP-HPLC) (relative to Peptide 1) [7]: 3.4
- Reactivity Relative To Peptide 1 (peptide cleavage, RP-HPLC) (relative to Peptide 1) [8]: < 0.05
- Reactivity Relative To Peptide 1 (peptide cleavage, RP-HPLC) (relative to Peptide 1) [9]: 0.5
- Reactivity Relative To Peptide 1 (peptide cleavage, RP-HPLC) (relative to Peptide 1) [10]: 0.47
- Reactivity Relative To Peptide 1 (peptide cleavage, RP-HPLC) (relative to Peptide 1) [11]: 2.4
- Reactivity Relative To Peptide 1 (peptide cleavage, RP-HPLC) (relative to Peptide 1) [12]: 0.74

— patent US6995141B1, “Interleukin 1β protease and interleukin 1β protease inhibitors” (Vertex Pharmaceuticals Incorporated, priority 1990, dated 2006)
